From US20110300138A1 (published 2011)

Assays:
[1] = molecular target: TSH receptor (full length human TSHR) coated on tubes (human) (UniProt P16473); assay: 125I-TSH binding to TSHR coated tubes, in assay buffer
[2] = molecular target: TSH receptor (full length human TSHR) coated on tubes (human) (UniProt P16473); assay: 125I-TSH binding to TSHR coated tubes, in HBD pool
TSHR260 [3] = molecular target: T1, TSHR260 (human, UniProt P16473 22-260); assay: ELISA on 14C4 F(ab')2 captured preparation; TSHR260 kept 48 hours at room temperature
T1 construct: Expressed in insect cells; coated on tubes or wells by way of a mouse TSHR MAb (14C4 F(ab')2 in the stability ELISA); also called TSHR fragment of amino acids 22-260

TSHR LRD C-CAP (human) [4] = molecular target: TSHR LRD C-CAP (human) (UniProt P16473); assay: ELISA on 14C4 F(ab')2 captured preparation; TSHR LRD C-CAP kept 48 hours at room temperature
TSHR LRD C-CAP (human) [5] = molecular target: TSHR LRD C-CAP (human) (UniProt P16473); assay: ELISA on 14C4 F(ab')2 captured preparation; untreated TSHR LRD C-CAP
[6] = molecular target: TSHR260-alkaline phosphatase (human); assay: ELISA on 14C4 F(ab')2 captured preparation; untreated TSHR260-AP
[7] = molecular target: full length human TSHR, detergent-solubilised, coated on tubes or ELISA plate wells (human) (UniProt P16473); assay: ELISA: TSHR preparation captured on 14C4 F(ab')2 coated wells, M22 Fab-peroxidase binding; preparation stored at -80 C (untreated)
[8] = molecular target: full length human TSHR, detergent-solubilised, coated on tubes or ELISA plate wells (human) (UniProt P16473); assay: ELISA on 14C4 F(ab')2 captured preparation; preparation kept 48 hours at room temperature
TSHR260 [9] = molecular target: T1, TSHR260; assay: ELISA on 14C4 F(ab')2 captured preparation; untreated TSHR260
[10] = molecular target: TSHR260-alkaline phosphatase (human); assay: ELISA on 14C4 F(ab')2 captured preparation; TSHR260-AP kept 24 hours at room temperature
[11] = molecular target: TSHR260-alkaline phosphatase (human); assay: ELISA on 14C4 F(ab')2 captured preparation; TSHR260-AP kept 48 hours at room temperature
[12] = molecular target: full length human TSHR, detergent-solubilised, coated on tubes or ELISA plate wells (human) (UniProt P16473); assay: ELISA on 14C4 F(ab')2 captured preparation; preparation kept 24 hours at room temperature
TSHR260 [13] = molecular target: T1, TSHR260; assay: ELISA on 14C4 F(ab')2 captured preparation; TSHR260 kept 24 hours at room temperature
TSHR LRD C-CAP (human) [14] = molecular target: TSHR LRD C-CAP (human) (UniProt P16473); assay: ELISA on 14C4 F(ab')2 captured preparation; TSHR LRD C-CAP kept 24 hours at room temperature
[15] = molecular target: TSH receptor (full length human TSHR) coated on tubes (human) (UniProt P16473); assay: 125I-TSH binding inhibition, TSHR coated tubes; 2 units/L in assay buffer
[16] = molecular target: TSH receptor (full length human TSHR) coated on tubes (human) (UniProt P16473); assay: 125I-TSH binding inhibition, TSHR coated tubes; 8 units/L in assay buffer
[17] = molecular target: TSH receptor (full length human TSHR) coated on tubes (human) (UniProt P16473); assay: 125I-TSH binding inhibition, TSHR coated tubes; 4 units/L in serum
[18] = molecular target: TSH receptor (full length human TSHR) coated on tubes (human) (UniProt P16473); assay: 125I-TSH binding inhibition, TSHR coated tubes; 2 units/L in serum
[19] = molecular target: TSH receptor (full length human TSHR) coated on tubes (human) (UniProt P16473); assay: 125I-TSH binding inhibition, TSHR coated tubes; 0.5 units/L in serum
[20] = molecular target: TSH receptor (full length human TSHR) coated on tubes (human) (UniProt P16473); assay: 125I-TSH binding inhibition, TSHR coated tubes; 1 unit/L in serum
[21] = molecular target: TSH receptor (full length human TSHR) coated on tubes (human) (UniProt P16473); assay: 125I-TSH binding inhibition, TSHR coated tubes; 1 unit/L in assay buffer
[22] = molecular target: TSH receptor (full length human TSHR) coated on tubes (human) (UniProt P16473); assay: 125I-TSH binding inhibition, TSHR coated tubes; 4 units/L in assay buffer
[23] = molecular target: TSH receptor (full length human TSHR) coated on tubes (human) (UniProt P16473); assay: 125I-TSH binding inhibition, TSHR coated tubes; 0.25 units/L in assay buffer
[24] = molecular target: TSH receptor (full length human TSHR) coated on tubes (human) (UniProt P16473); assay: 125I-TSH binding inhibition, TSHR coated tubes; 40 units/L in serum
[25] = molecular target: TSH receptor (full length human TSHR) coated on tubes (human) (UniProt P16473); assay: 125I-TSH binding inhibition, TSHR coated tubes; 0.5 units/L in assay buffer
[26] = molecular target: TSH receptor (full length human TSHR) coated on tubes (human) (UniProt P16473); assay: 125I-TSH binding inhibition, TSHR coated tubes; 0.125 units/L in serum
[27] = molecular target: TSH receptor (full length human TSHR) coated on tubes (human) (UniProt P16473); assay: 125I-TSH binding inhibition, TSHR coated tubes; 0.125 units/L in assay buffer
[28] = molecular target: TSH receptor (full length human TSHR) coated on tubes (human) (UniProt P16473); assay: 125I-TSH binding inhibition, TSHR coated tubes; 40 units/L in assay buffer
[29] = molecular target: TSH receptor (full length human TSHR) coated on tubes (human) (UniProt P16473); assay: 125I-TSH binding inhibition, TSHR coated tubes; 0.25 units/L in serum
[30] = molecular target: TSH receptor (full length human TSHR) coated on tubes (human) (UniProt P16473); assay: 125I-TSH binding inhibition, TSHR coated tubes; 8 units/L in serum
[31] = molecular target: TSH receptor (full length human TSHR) coated on tubes (human) (UniProt P16473); assay: 125I-TSH binding inhibition, TSHR coated tubes; 0.25 units/L, in assay buffer
[32] = molecular target: TSH receptor (full length human TSHR) coated on tubes (human) (UniProt P16473); assay: 125I-TSH binding inhibition, TSHR coated tubes; 0.25 units/L, in serum
[33] = molecular target: TSH receptor (full length human TSHR) coated on tubes (human) (UniProt P16473); assay: 125I-TSH binding inhibition, TSHR coated tubes; 4.0 units/L, in serum
[34] = molecular target: TSH receptor (full length human TSHR) coated on tubes (human) (UniProt P16473); assay: 125I-TSH binding inhibition, TSHR coated tubes; 40.0 units/L, in serum
[35] = molecular target: TSH receptor (full length human TSHR) coated on tubes (human) (UniProt P16473); assay: 125I-TSH binding inhibition, TSHR coated tubes; 1.0 units/L, in assay buffer
[36] = molecular target: TSH receptor (full length human TSHR) coated on tubes (human) (UniProt P16473); assay: 125I-TSH binding inhibition, TSHR coated tubes; 40.0 units/L, in assay buffer
[37] = molecular target: TSH receptor (full length human TSHR) coated on tubes (human) (UniProt P16473); assay: 125I-TSH binding inhibition, TSHR coated tubes; 8.0 units/L, in assay buffer
[38] = molecular target: TSH receptor (full length human TSHR) coated on tubes (human) (UniProt P16473); assay: 125I-TSH binding inhibition, TSHR coated tubes; 0.125 units/L, in assay buffer
[39] = molecular target: TSH receptor (full length human TSHR) coated on tubes (human) (UniProt P16473); assay: 125I-TSH binding inhibition, TSHR coated tubes; 8.0 units/L, in serum
[40] = molecular target: TSH receptor (full length human TSHR) coated on tubes (human) (UniProt P16473); assay: 125I-TSH binding inhibition, TSHR coated tubes; 0.5 units/L, in serum
[41] = molecular target: TSH receptor (full length human TSHR) coated on tubes (human) (UniProt P16473); assay: 125I-TSH binding inhibition, TSHR coated tubes; 1.0 units/L, in serum
[42] = molecular target: TSH receptor (full length human TSHR) coated on tubes (human) (UniProt P16473); assay: 125I-TSH binding inhibition, TSHR coated tubes; 4.0 units/L, in assay buffer
[43] = molecular target: TSH receptor (full length human TSHR) coated on tubes (human) (UniProt P16473); assay: 125I-TSH binding inhibition, TSHR coated tubes; 2.0 units/L, in assay buffer
[44] = molecular target: TSH receptor (full length human TSHR) coated on tubes (human) (UniProt P16473); assay: 125I-TSH binding inhibition, TSHR coated tubes; 0.125 units/L, in serum
[45] = molecular target: TSH receptor (full length human TSHR) coated on tubes (human) (UniProt P16473); assay: 125I-TSH binding inhibition, TSHR coated tubes; 2.0 units/L, in serum
[46] = molecular target: TSH receptor (full length human TSHR) coated on tubes (human) (UniProt P16473); assay: 125I-TSH binding inhibition, TSHR coated tubes; 0.5 units/L, in assay buffer
[47] = molecular target: T2, human TSH receptor, full length, detergent-solubilised, coated on tubes or ELISA plate wells (human, UniProt P16473 22-764); assay: TSHR binding affinity (summary table; Scatchard analysis, TSHR coated tubes)
T2 construct: Full length recombinant receptor expressed in CHO cells, solubilised and coated via a C-terminal antibody; also called wild type TSHR; full length TSHR

How did the % binding [1] turn out when 125I-labelled TSH (ligand) was run?
Its % binding is 12.6%.

What about the % binding [2] of the same molecule?
Its % binding is 12.9%.

For M22 Fab-peroxidase conjugate, which OD450 nm (TSHR260 [3]) is on record?
Its OD450 nm is 1.68 OD450 nm.

What about the OD450 nm (TSHR LRD C-CAP (human) [4]) of the same molecule?
The OD450 nm was 1.16 OD450 nm.

And the OD450 nm (TSHR LRD C-CAP (human) [5])?
Its OD450 nm is 1.83 OD450 nm.

And the OD450 nm [6]?
Its OD450 nm is 2.4 OD450 nm.

And the OD450 nm [7]?
The OD450 nm was 1.75 OD450 nm.

And the OD450 nm [8]?
Its OD450 nm is 0.126 OD450 nm.

And the OD450 nm (TSHR260 [9])?
Its OD450 nm is 2.29 OD450 nm.

What about the OD450 nm [10] of the same molecule?
The OD450 nm was 2.11 OD450 nm.

And the OD450 nm [11]?
The OD450 nm was 1.98 OD450 nm.

And the OD450 nm [12]?
Its OD450 nm is 0.268 OD450 nm.

What about the OD450 nm (TSHR260 [13]) of the same molecule?
Its OD450 nm is 1.84 OD450 nm.

What about the OD450 nm (TSHR LRD C-CAP (human) [14]) of the same molecule?
Its OD450 nm is 1.16 OD450 nm.

How did the Inhibition of binding (%) [15] turn out when “Thyroid Stimulating Autoantibody reference preparation NIBSC 90/672” was run?
Its Inhibition of binding (%) is 27.2%.

What about the Inhibition of binding (%) [16] of the same molecule?
Its Inhibition of binding (%) is 62.2%.

What about the Inhibition of binding (%) [17] of the same molecule?
Its Inhibition of binding (%) is 49.2%.

And the Inhibition of binding (%) [18]?
The Inhibition of binding (%) was 22.9%.

And the Inhibition of binding (%) [19]?
Its Inhibition of binding (%) is 9.3%.

What about the Inhibition of binding (%) [20] of the same molecule?
The Inhibition of binding (%) was 15.5%.

What about the Inhibition of binding (%) [21] of the same molecule?
Its Inhibition of binding (%) is 14.1%.

And the Inhibition of binding (%) [22]?
Its Inhibition of binding (%) is 53.3%.

What about the Inhibition of binding (%) [23] of the same molecule?
The Inhibition of binding (%) was 0.9%.

And the Inhibition of binding (%) [24]?
Its Inhibition of binding (%) is 90%.

What about the Inhibition of binding (%) [25] of the same molecule?
Its Inhibition of binding (%) is 2.8%.

And the Inhibition of binding (%) [26]?
The Inhibition of binding (%) was 2.4%.

What about the Inhibition of binding (%) [27] of the same molecule?
Its Inhibition of binding (%) is 5.1%.

And the Inhibition of binding (%) [28]?
Its Inhibition of binding (%) is 90.9%.

And the Inhibition of binding (%) [29]?
Its Inhibition of binding (%) is 3.5%.

What about the Inhibition of binding (%) [30] of the same molecule?
The Inhibition of binding (%) was 63.2%.

What does the source list for WHO reference preparation NIBSC 90/672?
Inhibition of binding (%) [31]: 0%; Inhibition of binding (%) [32]: 0%; Inhibition of binding (%) [33]: 34.8%; Inhibition of binding (%) [34]: 90.9%; Inhibition of binding (%) [35]: 14%; Inhibition of binding (%) [36]: 91%; Inhibition of binding (%) [37]: 62.7%; Inhibition of binding (%) [38]: 0%; Inhibition of binding (%) [39]: 65.3%; Inhibition of binding (%) [40]: 5.6%; Inhibition of binding (%) [41]: 8.1%; Inhibition of binding (%) [42]: 49%; Inhibition of binding (%) [43]: 26.2%; Inhibition of binding (%) [44]: 0%; Inhibition of binding (%) [45]: 18.2%; Inhibition of binding (%) [46]: 3.1%

B1: K1-70 IgG (human monoclonal TSHR autoantibody with blocking activity) (antibody, V domains shown)
VH: EVQLVQSGAEVKKPGQSLKISCKASGYSLTDNWIGWVRQKPGKGLEWMGIIYPGDSDTRYSPSFQGQVTISADKSINTAYLQWSSLKASDTAIYYCVGLDWNYNPLRYWGPGTLVTVSS
VL: QSVLTQPPSVSAAPGQKVTISCSGSSSDIGSNYVSWYQQFPGTAPKLLIYDNNKRPSAIPDRFSGSKSGTSATLGITGLQTGDEADYYCGTWDSRLGIAVFGGGTQLTVLG
notes: IgG1 lambda purified from hetero-hybridoma supernatant
How did the Ka [47] turn out when B1 was run?
Its Ka is 3.9e+10 M⁻¹.
